Assay [1] addresses human CD94 expressed on cells (human primary NK cells in PBMCs; HEK cells expressing human CD94) (human) (UniProt Q13241). Nature of the assay: cell-based or functional assay.
Assay [2] shares this target. Put plainly: flow cytometry, PE HLA-E tetramer on NK cells of PBMCs pre-incubated with antibody; competitor HLA-E tetramer.
For assay [3] the target is unchanged. Put plainly: flow cytometry titration on CD3-CD56+ NK cells in healthy donor PBMCs; 'Affinity on Human NK Cells'; the filing derives these affinities as EC50 of titration curves (the 2.6nM of 18H3 is labelled EC50 in FIG. 1). A general note: A flow cytometer gives signals particle by particle.
The target is the same in assay [4]. Put plainly: HLA-E tetramer blocking assay, flow cytometry on CD3-CD56+ NK cells in healthy donor PBMCs; antibody at one saturating concentration, blocked ligand PE-labelled HLA-E tetramer; percent blocking = 100-((percent HLA-E positive with antibody)/(percent HLA-E positive with isotype)*100).
For assay [5] the target is unchanged. Put plainly: competition assay, flow cytometry on CD3-CD56+ NK cells in healthy donor PBMCs; HP-3B1 titrated in the presence of Human IgG1 control (no competitor).
For assay [6] the target is unchanged. The assay is described as above. The source holds these as a separate data set.
For assay [7] the target is unchanged. Nature of the assay: competition assay, flow cytometry on CD3-CD56+ NK cells in healthy donor PBMCs; HP-3B1 titrated in the presence of Mouse IgG1 control (no competitor).

human CD94 expressed on cells (human primary NK cells in PBMCs; HEK cells expressing human CD94) (human), sequence (Q13241 whole entry): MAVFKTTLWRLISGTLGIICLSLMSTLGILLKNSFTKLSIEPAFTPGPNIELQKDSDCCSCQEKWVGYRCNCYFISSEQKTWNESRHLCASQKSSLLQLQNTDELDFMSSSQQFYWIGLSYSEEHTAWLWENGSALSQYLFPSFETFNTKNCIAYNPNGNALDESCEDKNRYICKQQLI

“commercial anti-CD94 antibody clone DX22” registered a percent decrease in MFI (antibody internalization assay), comparing 0.5 hours to 24 hours at 37° C. in assay [1] of 56%. In assay [2], the percent HLA-E blocking was over 40%. The EC50 in assay [3] came to 0.15 nM. The substance also showed an HLA-E Blocking in assay [4] of 99%.
Turning to “commercial anti-CD94 antibody clone 12K45”, the percent HLA-E blocking in assay [2] was over 40%. In addition, the EC50 in assay [3] amounted to 7 nM. This substance also gave an HLA-E Blocking in assay [4] of 47%.
In turn, “commercial anti-CD94 antibody clone HP-3B1” returned a percent HLA-E blocking in assay [2] of over 40%. Further, the EC50 (read off the curve) in assay [5] is 2 nM; in assay [6], 3 nM; in assay [7] it was 2 nM. In addition, the EC50 in assay [3] was 3 nM. Moreover, the HLA-E Blocking in assay [4] stood at 99.8%.
In assay [1], “commercial anti-CD94 antibody clone HP-3D9” gave a percent decrease in MFI (antibody internalization assay), comparing 0.5 hours to 24 hours at 37° C. of 54%. In assay [2], this substance showed a percent HLA-E blocking of over 40%. The substance also registered an EC50 in assay [3] of 0.07 nM. The substance further had an HLA-E Blocking in assay [4] of 99%.
Regarding “commercial anti-CD94 antibody clone 131412”, in assay [2], the percent HLA-E blocking is over 40%. The EC50 in assay [3] was 11 nM. The same substance showed an HLA-E Blocking in assay [4] of 40%.

What is called EC50 is the concentration at which the effect is half-maximal. What is called EC50 (read off the curve) is the concentration giving half of the maximal effect.

Source of the values: patent US20250197505A1.
